Test results reported in article PMC6303401, “A NAC transcription factor, NOR-like1, is a new positive regulator of tomato fruit ripening”.

Target: NOR-like1 (Solanum lycopersicum (cv. AC), UniProt K4CH25 1-329)
Assay: EMSA; EMSA kit (Thermo Fisher), manufacturer's instructions; buffer, salt, pH and temperature not stated
Conditions: protein: recombinant; tags: GST; chain copies: 2; label: biotin; blunt

NOR-like1, sequence (K4CH25 entry or part of it): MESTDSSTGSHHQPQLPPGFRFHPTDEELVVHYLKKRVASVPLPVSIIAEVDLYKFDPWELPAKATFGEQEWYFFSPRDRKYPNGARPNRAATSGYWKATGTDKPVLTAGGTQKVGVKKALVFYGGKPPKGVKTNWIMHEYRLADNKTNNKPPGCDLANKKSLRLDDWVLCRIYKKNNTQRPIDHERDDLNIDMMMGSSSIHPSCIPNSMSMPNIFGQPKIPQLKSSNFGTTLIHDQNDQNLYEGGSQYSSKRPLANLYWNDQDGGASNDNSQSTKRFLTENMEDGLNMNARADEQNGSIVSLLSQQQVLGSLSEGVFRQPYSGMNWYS

Binder | binding result
SlSGR1 wild (dsDNA) DNA 1: TAAGCAGTTATGCGTGTGCTGAAGTTGTTATTTCAAACGTGAAAAGGAAA DNA 2: TTTCCTTTTCACGTTTGAAATAACAACTTCAGCACACGCATAACTGCTTA | binds
SlGgpps2 wild (dsDNA) DNA 1: TACGTTTAGGATAGGACTTCATTACGTGTCAAGGACAAAAATAAACCTAT DNA 2: ATAGGTTTATTTTTGTCCTTGACACGTAATGAAGTCCTATCCTAAACGTA | binds
SlPG2a wild (dsDNA) DNA 1: TATTTTAAAAAATACACTTAAAAGCGTGACTAAATATAAATTGTTGCTCA DNA 2: TGAGCAACAATTTATATTTAGTCACGCTTTTAAGTGTATTTTTTAAAATA | binds
SlACS2 wild (dsDNA) DNA 1: AATAAATTCTTTTTGACAGGGTGGCGTAAAAATAATTTTATTTTAAAATA DNA 2: TATTTTAAAATAAAATTATTTTTACGCCACCCTGTCAAAAAGAATTTATT | binds
SlACS4 wild (dsDNA) DNA 1: GTTTTAACTTTTTAAATATTTTGACGTAAGTTTTTTGTTTTCCCCCAAAA DNA 2: TTTTGGGGGAAAACAAAAAACTTACGTCAAAATATTTAAAAAGTTAAAAC | binds
SlEXP1 wild (dsDNA) DNA 1: CTGAAATTTTAGCTAATTTTAACACGTATTCAATTTTGTATGATTGAATG DNA 2: CATTCAATCATACAAAATTGAATACGTGTTAAAATTAGCTAAAATTTCAG | binds
SlCEL2 wild (dsDNA) DNA 1: ATCCAATAGCATCCCACCACGTGTCGTAACAATATTGGTTTAACCCCAGG DNA 2: CCTGGGGTTAAACCAATATTGTTACGACACGTGGTGGGATGCTATTGGAT | binds
SlPL wild (dsDNA) DNA 1: TATCAATAACAGATAGTAATTTTACGTAATGATATTGAACGATGTATATA DNA 2: TATATACATCGTTCAATATCATTACGTAAAATTACTATCTGTTATTGATA | binds
